Results on 34 variants are retold here after the RNAGym collection of RNA variant scans (doi:10.1093/nar/gkz1192).

Sequences and labels used below:
B1: CPEB3 Ribozyme (parent)
chain: UAACAGGGGGCCACAGCAGAAGCGUUCACGUCGCAGCCCCUGUCAGAUUCUGGUGAAUCUGCGAAUUCUGCUGUAUAUCUC

The variants in this data set derive from B1. The data set can be described thus: self-cleavage, relative activity (ratio to wild type); higher = more cleavage; in vitro, sequencing. An outline of the steps: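 For each CPEB3 ribozyme variant, relative activity is its cleaved/total read fraction divided by the unmutated ribozyme's. Barcoded error-prone PCR libraries were transcribed by T7 RNA polymerase (5 hours, 37°C) and held in DNase I for 15 min before an EDTA stop, with cleavage occurring throughout. Template-switching reverse transcription and Illumina sequencing were used to read the RNAs. A 5-read minimum applied, and results are the mean of three batches.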
UAACAGGGGGCCACAGCAGAAGCGUUCACGUCGCAGCCCCUGUCAGAUUCUGGUUAAUCUGCGAAUUCUGCUGUAUACCUC [G55U U78C]: the self-cleavage was found to be 0.75.
In the case of UAACAGGGGGCCACAGCAGAAGCGUUCACGUCGCAGCCCCUGUCAGAUUCUGGUUAAUCUGCGAAUUCUGCUGCAUAUCUC [G55U U74C] it was 1.35.
UAACAGGGGGCCACAGCAGAAGCGUUCACGUCGCAGCCCCUGUCAGAUUCUGGUGGAUCUGCGAUUUCUGCUGUAUAUCUC [A56G A65U]: the self-cleavage was 0.25.
For UAACAGGGGGCCACAGCAGAAGCGUUCACGUCGCAGCCCCUGUCAGAUUCUGGUGGAUCUGCGAGUUCUGCUGUAUAUCUC [A56G A65G], the self-cleavage was found to be 0.32.
In the case of UAACAGGGGGCCACAGCAGAAGCGUUCACGUCGCAGCCCCUGUCAGAUUCUGGUGGAUCUGCGACUUCUGCUGUAUAUCUC [A56G A65C], the self-cleavage worked out at 0.15.
In the case of UAACAGGGGGCCACAGCAGAAGCGUUCACGUCGCAGCCCCUGUCAGAUUCUGGUUAAUCUGCGAAUUCUGCUGUAUAUCUU [G55U C81U] it was 0.6; in that of UAACAGGGGGCCACAGCAGAAGCGUUCACGUCGCAGCCCCUGUCAGAUUCUGGUGCGUCUGCGAAUUCUGCUGUAUAUCUC [A56C A57G], 0.5.
As for UAACAGGGGGCCACAGCAGAAGCGUUCACGUCGCAGCCCCUGUCAGAUUCUGGUGCAUCUGCGAACUCUGCUGUAUAUCUC [A56C U66C], the self-cleavage stood at 0.32.
The value for UAACAGGGGGCCACAGCAGAAGCGUUCACGUCGCAGCCCCUGUCAGAUUCUGGUGCAUCUGCGAAUUCUGCAGUAUAUCUC [A56C U72A] was 0.18; that for UAACAGGGGGCCACAGCAGAAGCGUUCACGUCGCAGCCCCUGUCAGAUUCUGGUGCAUCUGCGAAUUCUGCCGUAUAUCUC [A56C U72C] was 0.52; that for UAACAGGGGGCCACAGCAGAAGCGUUCACGUCGCAGCCCCUGUCAGAUUCUGGUGGAUCUGGGAAUUCUGCUGUAUAUCUC [A56G C62G] was 0.2.
Turning to UAACAGGGGGCCACAGCAGAAGCGUUCACGUCGCAGCCCCUGUCAGAUUCUGGUGGAUCUGAGAAUUCUGCUGUAUAUCUC [A56G C62A], the self-cleavage is 0.23.
The value for UAACAGGGGGCCACAGCAGAAGCGUUCACGUCGCAGCCCCUGUCAGAUUCUGGUGGAUCUGUGAAUUCUGCUGUAUAUCUC [A56G C62U] was 0.31; that for UAACAGGGGGCCACAGCAGAAGCGUUCACGUCGCAGCCCCUGUCAGAUUCUGGUUAAUCUGCGAAUUCUGCCGUAUAUCUC [G55U U72C] was 0.78.
The value for UAACAGGGGGCCACAGCAGAAGCGUUCACGUCGCAGCCCCUGUCAGAUUCUGGUGCACCUGCGAAUUCUGCUGUAUAUCUC [A56C U58C] was 0.14; that for UAACAGGGGGCCACAGCAGAAGCGUUCACGUCGCAGCCCCUGUCAGAUUCUGGUGCAUCUGCGUAUUCUGCUGUAUAUCUC [A56C A64U] was 0.18.
In the case of UAACAGGGGGCCACAGCAGAAGCGUUCACGUCGCAGCCCCUGUCAGAUUCUGGUGCAUCUGCGGAUUCUGCUGUAUAUCUC [A56C A64G] it was 0.49; in that of UAACAGGGGGCCACAGCAGAAGCGUUCACGUCGCAGCCCCUGUCAGAUUCUGGUGGAUCUGCGAAUUCUACUGUAUAUCUC [A56G G70A], 0.49.
As to UAACAGGGGGCCACAGCAGAAGCGUUCACGUCGCAGCCCCUGUCAGAUUCUGGUGGAUCUGCGAAUUCUUCUGUAUAUCUC [A56G G70U], the self-cleavage was determined as 0.25.
In the case of UAACAGGGGGCCACAGCAGAAGCGUUCACGUCGCAGCCCCUGUCAGAUUCUGGUGGAUCUGCGAAUUCUCCUGUAUAUCUC [A56G G70C] it was 0.21; in that of UAACAGGGGGCCACAGCAGAAGCGUUCACGUCGCAGCCCCUGUCAGAUUCUGGUUAAUCUGCGAACUCUGCUGUAUAUCUC [G55U U66C], 0.49; in that of UAACAGGGGGCCACAGCAGAAGCGUUCACGUCGCAGCCCCUGUCAGAUUCUGGUGGAUCUGCGAAUUCUGCUGUAUAUCUC [A56G], 0.91.
In the case of UAACAGGGGGCCACAGCAGAAGCGUUCACGUCGCAGCCCCUGUCAGAUUCUGGUGCAUCUGCGAAUUCUGCUGUAUAUCUC [A56C] it was 0.63; in that of UAACAGGGGGCCACAGCAGAAGCGUUCACGUCGCAGCCCCUGUCAGAUUCUGGUGCAUCUGCGAGUUCUGCUGUAUAUCUC [A56C A65G], 0.22.
The value for UAACAGGGGGCCACAGCAGAAGCGUUCACGUCGCAGCCCCUGUCAGAUUCUGGUGGAUCUGCAAAUUCUGCUGUAUAUCUC [A56G G63A] was 0.97.
For the variant UAACAGGGGGCCACAGCAGAAGCGUUCACGUCGCAGCCCCUGUCAGAUUCUGGUGGAUCUGCUAAUUCUGCUGUAUAUCUC [A56G G63U], the self-cleavage came out at 1.03.
In the case of UAACAGGGGGCCACAGCAGAAGCGUUCACGUCGCAGCCCCUGUCAGAUUCUGGUGGAUUUGCGAAUUCUGCUGUAUAUCUC [A56G C59U] it was 0.52; in that of UAACAGGGGGCCACAGCAGAAGCGUUCACGUCGCAGCCCCUGUCAGAUUCUGGUGGAUGUGCGAAUUCUGCUGUAUAUCUC [A56G C59G], 0.21.
In the case of UAACAGGGGGCCACAGCAGAAGCGUUCACGUCGCAGCCCCUGUCAGAUUCUGGUGGAUAUGCGAAUUCUGCUGUAUAUCUC [A56G C59A] it was 0.23; in that of UAACAGGGGGCCACAGCAGAAGCGUUCACGUCGCAGCCCCUGUCAGAUUCUGGUGCAUCUGCGAAUUCCGCUGUAUAUCUC [A56C U69C], 0.12; in that of UAACAGGGGGCCACAGCAGAAGCGUUCACGUCGCAGCCCCUGUCAGAUUCUGGUGCAUCUGCGAAUUCUGCUGUAUAUCCC [A56C U80C], 0.93.
In the case of UAACAGGGGGCCACAGCAGAAGCGUUCACGUCGCAGCCCCUGUCAGAUUCUGGUGGAUCUUCGAAUUCUGCUGUAUAUCUC [A56G G61U] it was 0.62; in that of UAACAGGGGGCCACAGCAGAAGCGUUCACGUCGCAGCCCCUGUCAGAUUCUGGUGGAUCUACGAAUUCUGCUGUAUAUCUC [A56G G61A], 0.63.
UAACAGGGGGCCACAGCAGAAGCGUUCACGUCGCAGCCCCUGUCAGAUUCUGGUUAAUCUGCGAAUUCCGCUGUAUAUCUC [G55U U69C]: the self-cleavage turned out to be 0.48.
